Measurements as given in publication PMC8752837, “Structural basis of BAK activation in mitochondrial apoptosis initiation” (Nature Communications, 2022).

Tested on: BCL2allKO HCT116 cells reconstituted with Dox-inducible mC-BAK
Assay: Dox-induced cell death by IncuCyte imaging of SYTOX Green uptake (autoactivation)
Format: cell-based, human
Settings: for SYTOX Green +ve counts/confluence AUC of kinetic traces: Fig 3d; for AUC (48 hr) of SYTOX Green counts/confluence: mC-BAK BCL2allKO HCT116 + Dox + qVD, average, N = 3
Excerpt: For mammalian cell culture experiments, we cloned the full length human BAK cDNA into pCR 2.1 TOPO vector, mutated BAK as needed, and PCR amplified the BAK gene for cloning into the BamHI and NotI sites of pRETROX mCherry vector for retroviral transduction. Amplification and mutagenesis primers are included in Supplementary Table 4. To test direct BAK activation and BAK autoactivation in cells, we produced cells stably expressing mCherry-human BAK (mC-BAK) ± human BID (BID) on a genetic background devoid of the entire BCL-2 family repertoire (all 17 BCL-2 genes), BCL2allKO HCT116, as described by the Xu Luo laboratory. We expressed WT and mutant mC-BAK using the doxycycline (Dox)-based inducible Tet-On 3G retroviral system from the pRetroX-TRE3G-Puro^R in BCL2allKO HCT116 cells expressing the Tet3G from pRetroX-Tet3G-Blast^R. We selected cells with puromycin (2.5 µg/mL) and blasticidin (2 µg/mL) starting at 2 days after retroviral transduction. To enrich for populations of cells that express mC-BAK, we treated cells with low Dox dose (25 ng/mL) and fluorescence-activated cell sorted (FACS) the mCherry positive cells. We performed the enrichment twice before cell death analysis. One caveat of our cellular system is tagging BAK with N-terminal mCherry, which may affect folding efficiency, degradation, and BAK interactome.
We seeded cells in 24-well (100,000 cells/well), 96-well (15,000 cells/well), or 384-well (10,000 cells/well) plates coated with 10 µg/mL fibronectin. After ≥24 h of attachment and recovery, we induced cell death with Dox (up to 1000 ng/mL) and monitored SYTOX Green (25 nM) uptake by Incucyte imaging. This dye marks cells with compromised plasma membrane integrity. mC-BAK expressed before 24 h, which coincided with detectable cell death. We monitored Incucyte imaging for up to 48 h, followed by endpoint FACS analysis to measure the extent of cell death based on SYTOX Green positive cells on FACSCalibur systems (BD Biosciences). As expected, cells with low mCherry fluorescence were refractory to cell death.

B1: V74A (1): BAK missense mutant, WT-like; in cells as mCherry fusion (protein)
chain: MASGQGPGPPRQECGEPALPSASEEQVAQDTEEVFRSYVFYRHQQEQEAEGVAAPADPEMVTLPLQPSSTMGQAGRQLAIIGDDINRRYDSEFQTMLQHLQPTAENAYEYFTKIATSLFESGINWGRVVALLGFGYRLALHVYQHGLTGFLGQVTRFVVDFMLHHCIARWIAQRGGWVAALNLGNG
modifications: left off: His6, C-terminal, kept
notes: BAK missense mutant, WT-like; in cells as mCherry fusion
Dox 6.25 ng/mL
  SYTOX Green +ve counts/confluence AUC of kinetic traces: 290.31
Dox 6.25 ng/mL + qVD
  SYTOX Green +ve counts/confluence AUC of kinetic traces: 201.143
Dox 12.5 ng/mL
  SYTOX Green +ve counts/confluence AUC of kinetic traces: 574.561
Dox 12.5 ng/mL + qVD
  SYTOX Green +ve counts/confluence AUC of kinetic traces: 218.508
Dox 25 ng/mL
  SYTOX Green +ve counts/confluence AUC of kinetic traces: 828.325
Dox 25 ng/mL + qVD
  SYTOX Green +ve counts/confluence AUC of kinetic traces: 220.818
Dox 50 ng/mL
  SYTOX Green +ve counts/confluence AUC of kinetic traces: 1653.15
Dox 50 ng/mL + qVD
  SYTOX Green +ve counts/confluence AUC of kinetic traces: 333.116
Dox 100 ng/mL
  SYTOX Green +ve counts/confluence AUC of kinetic traces: 2313.65
  AUC (48 hr) of SYTOX Green counts/confluence: 79832.2
Dox 100 ng/mL + qVD
  SYTOX Green +ve counts/confluence AUC of kinetic traces: 342.619
Dox 500 ng/mL
  SYTOX Green +ve counts/confluence AUC of kinetic traces: 2761.33
Dox 500 ng/mL + qVD
  SYTOX Green +ve counts/confluence AUC of kinetic traces: 584.364
Dox 1000 ng/mL
  SYTOX Green +ve counts/confluence AUC of kinetic traces: 2775.53
  AUC (48 hr) of SYTOX Green counts/confluence: 98530.5
Dox 1000 ng/mL + qVD
  SYTOX Green +ve counts/confluence AUC of kinetic traces: 699.139
IncuCyte SYTOX Green up to 48 h
  Dox-induced cell death: induces cell death faster than I81A(3) or D83A(s) irrespective of Dox dose
